Data on seven variants can be found in IntAct's records for PubMed 20494986.

B1: Type 3 secretion system chaperone PscE (Pseudomonas aeruginosa (strain ATCC 15692 / PAO1 / 1C / PRS 101 / LMG 12228)), Q9I317 (parent)
chain: MMTALETRLSVADGTHAAALRQRLQAALAECRRELARGACPEHFQFLQQQARALEGGLGILSQLTED
partner: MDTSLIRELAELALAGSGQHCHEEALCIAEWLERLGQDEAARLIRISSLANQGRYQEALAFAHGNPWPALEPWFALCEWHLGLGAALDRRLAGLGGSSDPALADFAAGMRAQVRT
B2: Type 3 secretion system chaperone PscG (Pseudomonas aeruginosa (strain ATCC 15692 / PAO1 / 1C / PRS 101 / LMG 12228)), P95435 (parent)
chain: B1 partner
partner: B1 chain

One assay covers variants of B1. As to conditions: with pscg_pseae pscG, P95435.
Regarding MMTALETRLSVADGTHAAASRQRLQAALAECRRELARGACPEHFQFLQQQARALEGGLGILSQLTED [L20S], the “effect of a mutation on the interaction” value is “decreasing interaction”. As to MMTALETRLSVADGTHAAALRQRLQAALAECRRELARGACPEHFQFLQQQARALEGDLGILSQLTED [G57D], the “effect of a mutation on the interaction” value is recorded as “disrupting interaction”.

Variants of B2 are the subject of another assay. Particulars: with psce_pseae pscE, Q9I317.
With MDTSLIRELAELALAGSGQHCHEEALCSAEWLERLGQDEAARLIRISSLANQGRYQEALAFAHGNPWPALEPWFALCEWHLGLGAALDRRLAGLGGSSDPALADFAAGMRAQVRT [I28S], the “effect of a mutation on the interaction” value is given as “decreasing interaction”. On to MDTSSIRESAELALAGSGQHCHEEALCIAEWLERLGQDEAARLIRISSLANQGRYQEALAFAHGNPWPALEPWFALCEWHLGLGAALDRRLAGLGGSSDPALADFAAGMRAQVRT [L5S;L9S], for which the “effect of a mutation on the interaction” value is listed as “decreasing interaction”. For MDTSLIRELAELALAGSGQHCHEEALCSAESLERLGQDEAARLIRISSLANQGRYQEALAFAHGNPWPALEPWFALCEWHLGLGAALDRRLAGLGGSSDPALADFAAGMRAQVRT [I28S;W31S], the “effect of a mutation on the interaction” value is “decreasing interaction”.

With MDTSSIRELAELALAGSGQHCHEEALCIAEWLERLGQDEAARLIRISSLANQGRYQEALAFAHGNPWPALEPWFALCEWHLGLGAALDRRLAGLGGSSDPALADFAAGMRAQVRT [L5S], the “effect of a mutation on the interaction” value was “decreasing interaction”. Regarding MDTSLIRESAELALAGSGQHCHEEALCIAEWLERLGQDEAARLIRISSLANQGRYQEALAFAHGNPWPALEPWFALCEWHLGLGAALDRRLAGLGGSSDPALADFAAGMRAQVRT [L9S], the “effect of a mutation on the interaction” value was “decreasing interaction”.
